Test results as given in US20090018067A1 (published 2009).

Columns and labels:
Assay in all cases: soluble HLA class II competition assay against a biotinylated control peptide, affinity grade
[1] = target: T1, HLA DRB1*0701 (purified recombinant soluble HLA class II molecule) (human)
T1 construct: also called DRB*0701

[2] = target: HLA DRB1*1501 (purified recombinant soluble HLA class II molecule) (human)
[3] = target: T2, HLA DRB1*0101 (purified recombinant soluble HLA class II molecule) (human)
T2 construct: also called DRB*0101

[4] = target: T3, HLA DRB1*0401 (purified recombinant soluble HLA class II molecule) (human)
T3 construct: also called DRB*0401

Measured: binding result

B1: Tregitope-074 (peptide)
peptide: VDTSKNQFSLRLSSVTAADTA
notes: Synthetic Fmoc peptide
binds: [1] | [2] | [3] | [4]
